The source of these data is PMC6294489, “Structural basis for receptor-regulated SMAD recognition by MAN1” (Nucleic Acids Research, 2018).

Data set [1] addresses T1, His-GST-SMAD1C-2E H364Y-F366W (human, UniProt Q15797-1 259-465, H364Y | F366W | S463E | S465E).
T1 construct: SMAD1, human, MH2 domain, residues 259–465 with S463E, S465E, H364Y and F366W; also called H364Y-F366W double mutant of SMAD1; source: E. coli BL21(DE3) with pG-KJE8, purified (Ni-NTA, MonoQ); not shown: His tag, N-terminal, kept; GST, N-terminal, kept
Kind of data set: pull-down; His-GST-SMAD1C-2E, its mutant or His-GST-SMAD2C-2E (2.5 μM) on Ni-NTA resin, Trx-MAN1(762–890)-SDED (5 μM; 5, 10 and 20 μM in the comparison of SMAD1 with SMAD2); 50 mM Tris–HCl pH 9.0, 200 mM NaCl, 10 mM imidazole, 10% glycerol, 1 mM TCEP. The following applies: both partners purified.

In data set [2] the target is T2, SMAD1C-2E (human, UniProt Q15797-1 259-465, S463E | S465E).
T2 construct: SMAD1, human, MH2 domain, residues 259–465 with S463E and S465E; Crystals: from pGEX-6P-SMAD1C-2E (GST cleaved); treated as the same molecule; also called phosphorylated-state mimic of the MH2 domain of SMAD1; source: E. coli BL21(DE3) with pG-KJE8; for ITC and thermal shift purified (Ni-NTA, HRV3C protease, MonoQ); not shown: GST, N-terminal, cleaved
T2 sequence (Q15797 259-465 S463E/S465E): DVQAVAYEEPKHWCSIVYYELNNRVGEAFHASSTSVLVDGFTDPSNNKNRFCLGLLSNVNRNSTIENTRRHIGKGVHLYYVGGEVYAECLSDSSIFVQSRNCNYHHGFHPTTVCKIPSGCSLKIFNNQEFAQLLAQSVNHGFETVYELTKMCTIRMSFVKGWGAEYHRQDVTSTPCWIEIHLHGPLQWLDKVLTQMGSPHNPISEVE
Kind of data set: ITC; Trx-MAN1(762–890)-SDED (255 μM) injected into SMAD1C-2E (20 μM) or SMAD2C-2E (25 μM); 20°C; 100 mM Na2HPO4 pH 8.0, 150 mM NaCl, 1 mM TCEP; one set of sites model. Particulars: both partners purified.

The target in the next data set is SMAD2C-2E (human). The description is as above.
Data set [3] addresses T2, SMAD1C-2E. Briefly: thermal shift assay; SMAD1C-2E or SMAD2C-2E (10 μM) with Trx-MAN1(762–911)-SDED (10 μM), SYPRO Orange; 10 mM Tris–HCl pH 9.0, 200 mM NaCl, 1 mM TCEP; 20 to 95°C. The following applies: both partners purified.

T1 sequence (Q15797 259-465 H364Y/F366W/S463E/S465E): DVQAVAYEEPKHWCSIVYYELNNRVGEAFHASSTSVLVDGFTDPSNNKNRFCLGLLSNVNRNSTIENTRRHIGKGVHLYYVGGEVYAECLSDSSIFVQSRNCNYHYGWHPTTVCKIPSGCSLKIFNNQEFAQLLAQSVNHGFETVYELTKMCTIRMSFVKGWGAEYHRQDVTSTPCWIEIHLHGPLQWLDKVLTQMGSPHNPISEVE

B1: Trx-MAN1(762–890)-SDED (domain or fragment, human, UniProt Q9Y2U8 762-890, looked up)
chain: SKVWQGQAFHLDRRNSPPNSLTPCLKIRNMFDPVMEIGDQWHLAIQEAILEKCSDNDGIVHIAVDKNSREGCVYVKCLSPEYAGKAFKALHGSWFDGKLVTVKYLRLDRYHHRFPQALTSNTPLKPSNK
notes: MAN1, human, residues 762–890 (ULM and UHM domain); Layout: His-tag, HRV3C site, Trx, Gly-Ser, MAN1, Ser-Asp-Glu-Asp; His tag cut off with HRV3C; source: E. coli Rosetta (DE3), purified (Ni-NTA, HRV3C protease, MonoQ); not shown: His tag, N-terminal, cleaved; Trx, N-terminal, kept; SDED (Ser-Asp-Glu-Asp), C-terminal, kept
On to B1, for which the binding result in data set [1] is listed as “binds”. In addition, the dissociation constant (Kd) in the data set with SMAD1C-2E [2] was 350 nM; with SMAD2C-2E (human), 3300 nM.

B2: Trx-MAN1(762–911)-SDED (domain or fragment, human, UniProt Q9Y2U8 762-911, looked up)
chain: SKVWQGQAFHLDRRNSPPNSLTPCLKIRNMFDPVMEIGDQWHLAIQEAILEKCSDNDGIVHIAVDKNSREGCVYVKCLSPEYAGKAFKALHGSWFDGKLVTVKYLRLDRYHHRFPQALTSNTPLKPSNKHMNSMSHLRLRTGLTNSQGSS
notes: MAN1, human, residues 762–911 (ULM, UHM domain and C-terminal disordered region); source: E. coli Rosetta (DE3), purified (Ni-NTA, HRV3C protease, MonoQ); not shown: His tag, N-terminal, cleaved; Trx, N-terminal, kept; SDED (Ser-Asp-Glu-Asp), C-terminal, kept
For B2, the “Tm of SMAD1C-2E with the binder (48.5°C without)” value with SMAD1C-2E [3] was 50.5 °C.
